# Results reported in US20160143998A1 (Novo Nordisk, published 2016).
# *1 amine or outer side, *2 acyl side, *3 side chain or, on linkers, in order; H or OH if unused. Where no end group is shown, it is not given here. Side-chain parts run from the residue outwards. [ ]: non-standard residue; d: D form. The star is where a group is joined. code 2xAEEA = O=C(COCCOCCN[*:1])NCCOCCOCC(=O)[*:2]; C20 diacid = O=C(O)CCCCCCCCCCCCCCCCCCC(=O)*; γGlu = O=C(O)[C@H](CCC(=O)[*:2])N[*:1]; Desaminohistidyl = O=C(CCc1c[nH]cn1)*; Trx = NC[C@H]1CC[C@H](C(=O)O)CC1; code LysOEG = not defined here; Lys(Bis) = not defined here; AEEA = NCCOCCOCC(=O)O; Aib = CC(C)(N)C(=O)O
# B1: [Aib8,Glu22,Arg26,Arg34]-GLP-1-(7-37)-peptidyl-Gly-Ser-N{Epsilon}[(2S)-2,6-bis[[2-[2-[2-[[2-[2-[2-[[(4S)-4-carboxy-4-[[4-[(19-carboxynonadecanoylamino)methyl]cy … (peptide)
# peptide: H[Aib]EGTFTSDVSSYLEEQAAREFIAWLVRGRGGSK([code LysOEG-AEEA-γGlu-Trx-C20 diacid)(OEG-AEEA-γGlu-Trx-C20 diacid])
# modifications: reading uncertain; also: printed as [Aib8,Glu22,Arg26,Arg34]-GLP-1-(7-37)-peptidyl-Gly-Ser-N{Epsilon}[(2S)-2,6-bis[[2-[2-[2-[[2-[2-[2-[[(4S)-4-carboxy-4-[[4-[(19-carboxynonadecanoylamino)methyl]cyclohexanecarbonyl]amino]butanoyl]amino]ethoxy]ethoxy]acetyl]amino]ethoxy]ethoxy]acetyl]amino]hexanoyl]Lys
# notes: Side chain read from the name: eps-Lys(Bis) branched linker, each leg C20 diacid-Trx-gGlu-2xOEG
# B2: [Aib8,Glu22,Arg26,Arg34]-GLP-1-(7-37)-peptidyl-Glu-Pro-Pro-Gly-N{Epsilon}[(2S)-2,6-bis[[2-[2-[2-[[2-[2-[2-[[(4S)-4-carboxy-4-[[4-[(19-carboxynonadecanoylamino)m … (peptide)
# peptide: H[Aib]EGTFTSDVSSYLEEQAAREFIAWLVRGRGEPPGK([code LysOEG-AEEA-γGlu-Trx-C20 diacid)(OEG-AEEA-γGlu-Trx-C20 diacid])
# modifications: reading uncertain
# notes: as for B1
# B3: N{Alpha}([Aib8,Glu22,Arg26,Arg34]-GLP-1-(7-37)-peptidyl)-N{Epsilon}[(2S)-2,6-bis[[2-[2-[2-[[2-[2-[2-[[(4S)-4-carboxy-4-(19-carboxynonadecanoylamino)butanoyl]ami … (peptide)
# peptide: H[Aib]EGTFTSDVSSYLEEQAAREFIAWLVRGRGK([code LysOEG-AEEA-γGlu-C20 diacid)(OEG-AEEA-γGlu-C20 diacid])
# modifications: reading uncertain; also: printed as N{Alpha}([Aib8,Glu22,Arg26,Arg34]-GLP-1-(7-37)-peptidyl)-N{Epsilon}[(2S)-2,6-bis[[2-[2-[2-[[2-[2-[2-[[(4S)-4-carboxy-4-(19-carboxynonadecanoylamino)butanoyl]amino]ethoxy]ethoxy]acetyl]amino]ethoxy]ethoxy]acetyl]amino]hexanoyl]Lys
# notes: Side chain read from the name: eps-Lys(Bis) branched linker, each leg C20 diacid-gGlu-2xOEG
# B4: [Aib8,Glu22,Arg26,Arg34]-GLP-1-(7-37)-peptidyl-Ser-N{Epsilon}[(2S)-2,6-bis[[2-[2-[2[[2-[2-[2-[[(4S)-4-carboxy-4-[[4-[(19-carboxynonadecanoylamino)methyl]cyclohe … (peptide)
# peptide: H[Aib]EGTFTSDVSSYLEEQAAREFIAWLVRGRGSK([Lys(Bis)-code 2xAEEA-AEEA-γGlu-Trx-C20 diacid])
# modifications: reading uncertain; also: printed as [Aib8,Glu22,Arg26,Arg34]-GLP-1-(7-37)-peptidyl-Ser-N{Epsilon}[(2S)-2,6-bis[[2-[2-[2[[2-[2-[2-[[(4S)-4-carboxy-4-[[4-[(19-carboxynonadecanoylamino)methyl]cyclohexanecarbonyl]amino]butanoyl]amino]ethoxy]ethoxy]acetyl]amino]ethoxy]ethoxy]acetyl]amino]hexanoyl]Lys
# notes: as for B1
# B5: [Aib8,Glu22,Arg26,Arg34]-GLP-1-(7-37)-peptidyl-Pro-Ala-Glu-Glu-N{Epsilon}[(2S)-2,6-bis[[2-[2-[2-[[2-[2-[2-[[(4S)-4-carboxy-4-[[4-[(19-carboxynonadecanoylamino)m … (peptide)
# peptide: H[Aib]EGTFTSDVSSYLEEQAAREFIAWLVRGRGPAEEK([Lys(Bis)-code 2xAEEA-AEEA-γGlu-Trx-C20 diacid])
# modifications: reading uncertain
# notes: as for B1
# B6: N{Alpha}([Aib8,Glu22,Arg26,Arg34]-GLP-1-(7-37)-peptidyl)-N{Epsilon}[(2S)-2,6-bis[[2-[2-[2-[[2-[2-[2-[[(4S)-4-carboxy-4-[[1-(19-carboxynonadecanoyl)piperidine-4- … (peptide)
# peptide: H[Aib]EGTFTSDVSSYLEEQAAREFIAWLVRGRGK
# modifications: not fully specified (residue 32); printed as N{Alpha}([Aib8,Glu22,Arg26,Arg34]-GLP-1-(7-37)-peptidyl)-N{Epsilon}[(2S)-2,6-bis[[2-[2-[2-[[2-[2-[2-[[(4S)-4-carboxy-4-[[1-(19-carboxynonadecanoyl)piperidine-4-carbonyl]amino]butanoyl]amino]ethoxy]ethoxy]acetyl]amino]ethoxy]ethoxy]acetyl]amino]hexanoyl]Lys
# notes: Side chain read from the name: eps-Lys(Bis) branched linker, each leg C20 diacid-Inp-gGlu-2xOEG
# B7: [Imp7,Aib8,Glu22,Arg26,Arg34]-GLP-1-(7-37)-peptidyl-Gly-N{Epsilon}[(2S)-2,6-bis[[2-[2-[2-[[2-[2-[2-[[2-[2-[2-[[2-[2-[2-[[(4S)-4-carboxy-4-[[4-[(19-carboxynonade … (peptide)
# peptide: [Desaminohistidyl][Aib]EGTFTSDVSSYLEEQAAREFIAWLVRGRGGK([Lys(Bis)-code 2xAEEA-AEEA-AEEA-AEEA-γGlu-Trx-C20 diacid])
# modifications: reading uncertain; also: printed as [Imp7,Aib8,Glu22,Arg26,Arg34]-GLP-1-(7-37)-peptidyl-Gly-N{Epsilon}[(2S)-2,6-bis[[2-[2-[2-[[2-[2-[2-[[2-[2-[2-[[2-[2-[2-[[(4S)-4-carboxy-4-[[4-[(19-carboxynonadecanoylamino)methyl]cyclohexanecarbonyl]amino]butanoyl]amino]ethoxy]ethoxy]acetyl]amino]ethoxy]ethoxy]acetyl]amino]ethoxy]ethoxy]acetyl]amino]ethoxy]ethoxy]acetyl]amino]hexanoyl]Lys
# notes: Side chain read from the name: eps-Lys(Bis) branched linker, each leg C20 diacid-Trx-gGlu-4xOEG
# B8: N{Alpha}([Aib8,Glu22,Arg26,Arg34]-GLP-1-(7-37)-peptidyl)-N{Epsilon}[(2S)-2,6-bis[[2-[2-[2-[[2-[2-[2-[[(4S)-4-carboxy-4-[[4-[(19-carboxynonadecanoylamino)methyl] … (peptide)
# peptide: H[Aib]EGTFTSDVSSYLEEQAAREFIAWLVRGRGK([code LysOEG-AEEA-γGlu-Trx-C20 diacid)(OEG-AEEA-γGlu-Trx-C20 diacid])
# modifications: reading uncertain; also: printed as N{Alpha}([Aib8,Glu22,Arg26,Arg34]-GLP-1-(7-37)-peptidyl)-N{Epsilon}[(2S)-2,6-bis[[2-[2-[2-[[2-[2-[2-[[(4S)-4-carboxy-4-[[4-[(19-carboxynonadecanoylamino)methyl]cyclohexanecarbonyl]amino]butanoyl]amino]ethoxy]ethoxy]acetyl]amino]ethoxy]ethoxy]acetyl]amino]hexanoyl]Lys
# notes: as for B1
# B9: N{Alpha}([Aib8,Glu22,Arg26,Arg34,Pro37]-GLP-1-(7-37)-peptidyl)-N{Epsilon}[(2S)-2,6-bis[[2-[2-[2-[[2-[2-[2-[[2-[2-[2-[[2-[2-[2-[[2-[2-[2-[[2-[2-[2-[[(4S)-4-carbo … (peptide)
# peptide: H[Aib]EGTFTSDVSSYLEEQAAREFIAWLVRGRPK([code LysOEG-AEEA-AEEA-AEEA-AEEA-AEEA-γGlu-Trx-C20 diacid)(OEG-AEEA-AEEA-AEEA-AEEA-AEEA-γGlu-Trx-C20 diacid])
# modifications: reading uncertain
# notes: Side chain read from the name: eps-Lys(Bis) branched linker, each leg C20 diacid-Trx-gGlu-6xOEG
# B10: [Aib8,Glu22,Arg26,Arg34]-GLP-1-(7-37)-peptidyl-Gly-Gly-Gly-Ser-N{Epsilon}[(2S)-2,6-bis[[2-[2-[2-[[2-[2-[2-[[(4S)-4-carboxy-4-[[4-[(19-carboxynonadecanoylamino)m … (peptide)
# peptide: H[Aib]EGTFTSDVSSYLEEQAAREFIAWLVRGRGGGGSK([code LysOEG-AEEA-γGlu-Trx-C20 diacid)(OEG-AEEA-γGlu-Trx-C20 diacid])
# modifications: reading uncertain
# notes: as for B1
# B11: [Aib8,Glu22,Arg26,Arg34]-GLP-1-(7-37)-peptidyl-Ser-Ser-Gly-Ala-Pro-N{Epsilon}[(2S)-2,6-bis[[2-[2-[2-[[2-[2-[2-[[(4S)-4-carboxy-4-[[4-[(19-carboxynonadecanoylami … (peptide)
# peptide: H[Aib]EGTFTSDVSSYLEEQAAREFIAWLVRGRGSSGAPK([Lys(Bis)-code 2xAEEA-AEEA-γGlu-Trx-C20 diacid])
# modifications: reading uncertain
# notes: as for B1
# B12: [Aib8,Glu22,Arg26,Arg34]-GLP-1-(7-37)-peptidyl-Ser-Ser-Ala-Glu-Gly-N{Epsilon}[(2S)-2,6-bis[[2-[2-[2-[[2-[2-[2-[[(4S)-4-carboxy-4-[[4-[(19-carboxynonadecanoylami … (peptide)
# peptide: H[Aib]EGTFTSDVSSYLEEQAAREFIAWLVRGRGSSAEGK([Lys(Bis)-code 2xAEEA-AEEA-γGlu-Trx-C20 diacid])
# modifications: reading uncertain
# notes: as for B1
# B13: [Aib8,Glu22,Arg26,Arg34]-GLP-1-(7-37)-peptidyl-Ser-Ser-Pro-Ala-Ala-N{Epsilon}[(2S)-2,6-bis[[2-[2-[2-[[2-[2-[2-[[(4S)-4-carboxy-4-[[4-[(19-carboxynonadecanoylami … (peptide)
# peptide: H[Aib]EGTFTSDVSSYLEEQAAREFIAWLVRGRGSSPAAK([Lys(Bis)-code 2xAEEA-AEEA-γGlu-Trx-C20 diacid])
# modifications: reading uncertain
# notes: as for B1
# B14: [Aib8,Glu22,Arg26,Arg34]-GLP-1-(7-37)-peptidyl-Ser-Ser-Glu-Ala-Glu-N{Epsilon}[(2S)-2,6-bis[[2-[2-[2-[[2-[2-[2-[[(4S)-4-carboxy-4-[[4-[(19-carboxynonadecanoylami … (peptide)
# peptide: H[Aib]EGTFTSDVSSYLEEQAAREFIAWLVRGRGSSEAEK([Lys(Bis)-code 2xAEEA-AEEA-γGlu-Trx-C20 diacid])
# modifications: reading uncertain
# notes: as for B1
# B15: [Aib8,Glu22,Arg26,Arg34]-GLP-1-(7-37)-peptidyl-Gly-Gly-Ser-N{Epsilon}[(2S)-2,6-bis[[2-[2-[2-[[2-[2-[2-[[(4S)-4-carboxy-4-[[4-[(19-carboxynonadecanoylamino)methy … (peptide)
# peptide: H[Aib]EGTFTSDVSSYLEEQAAREFIAWLVRGRGGGSK([code LysOEG-AEEA-γGlu-Trx-C20 diacid)(OEG-AEEA-γGlu-Trx-C20 diacid])
# modifications: reading uncertain; also: printed as [Aib8,Glu22,Arg26,Arg34]-GLP-1-(7-37)-peptidyl-Gly-Gly-Ser-N{Epsilon}[(2S)-2,6-bis[[2-[2-[2-[[2-[2-[2-[[(4S)-4-carboxy-4-[[4-[(19-carboxynonadecanoylamino)methyl]cyclohexanecarbonyl]amino]butanoyl]amino]ethoxy]ethoxy]acetyl]amino]ethoxy]ethoxy]acetyl]amino]hexanoyl]Lys
# notes: as for B1
# B16: [Aib8,Glu22,Arg26,Arg34]-GLP-1-(7-37)-peptidyl-Ala-Glu-Ala-Pro-N{Epsilon}[(2S)-2,6-bis[[2-[2-[2-[[2-[2-[2-[[(4S)-4-carboxy-4-[[4-[(19-carboxynonadecanoylamino)m … (peptide)
# peptide: H[Aib]EGTFTSDVSSYLEEQAAREFIAWLVRGRGAEAPK([code LysOEG-AEEA-γGlu-Trx-C20 diacid)(OEG-AEEA-γGlu-Trx-C20 diacid])
# modifications: reading uncertain
# notes: as for B1
# Tests used:
# human GLP-1 receptor [1] = target: T1, human GLP-1 receptor (human, UniProt P43220 24-463); assay: cell-based or functional assay
# human GLP-1 receptor [2] = target: T1, human GLP-1 receptor; assay: SPA competition vs 125I-GLP-1(7-36)NH2, hGLP-1R BHK membranes, low HSA
# Method: (§1) For the receptor binding assay in the presence of low HSA (0.005%) 50 μl of the assay buffer was added to each well of an assay plate. […] For the receptor binding assay in the presence of high HSA (2%) 50 μl of the 8% albumin stock was added to each well of an assay plate. […] Cell membrane aliquots were thawed and diluted to their working concentration. Fifty μl were added to each well in the assay plate. […] WGA SPA beads were suspended in assay buffer at 20 mg/ml. The suspension was diluted to 10 mg/ml in assay buffer just prior to addition to the assay plate. Fifty μl were added to each well in the assay plate. […] A 25 μl aliquot was reserved for measuring total counts/well. […] The assay plate was incubated for 2 h at 30° C. […] The assay plate was centrifuged for 10 min. […] The assay plate was read in a Packard TopCount NXT instrument.
# human GLP-1 receptor [3] = target: T1, human GLP-1 receptor; assay: SPA competition vs 125I-GLP-1(7-36)NH2, hGLP-1R BHK membranes, high HSA (2.0%)
# Method: as §1
Binder,"EC50 (pM), in vitro potency, CRE luciferase reporter gene assay in BHK cells expressing the human GLP-1 receptor (human GLP-1 receptor [1]) [pM]",IC50 (human GLP-1 receptor [2]) [nM],IC50 (human GLP-1 receptor [3]) [nM]
B1,51,0.74,25
B2,15,2.9,50
B3,25,0.45,64
B4,44,0.61,83
B5,14,2.9,68
B6,55,0.76,68
B7,16,0.91,54
B8,70,0.9,78
B9,12,0.57,84
B10,94,1.64,175
B11,99,0.99,28
B12,12,3.2,63
B13,22,4.8,51
B14,19,3.1,85
B15,87,1.93,59
B16,13,1.7,27
